Test results published in paper PMC12001115, “Double prenylation of budding yeast Ykt6 regulates cell wall integrity and autophagy” (The Journal of Biological Chemistry, 2025).

Target: T1, Ecm9 (recombinant, subunit of yeast GGT3) (budding yeast (S. cerevisiae), UniProt Q02202 1-377)
T1 construct: Ecm9, budding yeast; no tag is named for this chain; also called recombinant yeast GGT3 α subunit
T1 sequence (looked up): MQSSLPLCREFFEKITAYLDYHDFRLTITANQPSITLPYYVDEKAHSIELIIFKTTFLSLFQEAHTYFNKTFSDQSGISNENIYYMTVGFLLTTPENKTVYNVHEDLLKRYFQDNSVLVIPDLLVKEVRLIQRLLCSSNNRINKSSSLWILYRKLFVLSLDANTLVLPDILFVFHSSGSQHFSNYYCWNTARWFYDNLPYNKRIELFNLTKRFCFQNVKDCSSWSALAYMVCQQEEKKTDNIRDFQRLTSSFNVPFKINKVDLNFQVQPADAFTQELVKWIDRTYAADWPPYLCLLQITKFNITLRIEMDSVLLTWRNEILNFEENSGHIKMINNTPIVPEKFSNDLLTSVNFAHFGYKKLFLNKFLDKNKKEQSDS
Assay: SEC; Ecm9 and GST-Bet2 co-expressed in ExpiSf cells and co-purified (glutathione Sepharose, GST cleaved, MonoQ), then Superdex 200 Increase gel filtration in buffer A (50 mM HEPES-KOH pH 7.4, 50 mM NaCl, 5 mM MgCl2, 1 mM DTT); SDS-PAGE with Coomassie staining
Settings: both partners purified

binding result: binds
B1: Bet2 (recombinant, subunit of yeast GGT3) (natural protein, budding yeast (S. cerevisiae), UniProt P20133 1-325, looked up)
chain: MSGSLTLLKEKHIRYIESLDTKKHNFEYWLTEHLRLNGIYWGLTALCVLDSPETFVKEEVISFVLSCWDDKYGAFAPFPRHDAHLLTTLSAVQILATYDALDVLGKDRKVRLISFIRGNQLEDGSFQGDRFGEVDTRFVYTALSALSILGELTSEVVDPAVDFVLKCYNFDGGFGLCPNAESHAAQAFTCLGALAIANKLDMLSDDQLEEIGWWLCERQLPEGGLNGRPSKLPDVCYSWWVLSSLAIIGRLDWINYEKLTEFILKCQDEKKGGISDRPENEVDVFHTVFGVAGLSLMGYDNLVPIDPIYCMPKSVTSKFKKYPYK
notes: Bet2, budding yeast; also called GST-BET2; recombinant yeast GGT3 β subunit; not shown: GST, N-terminal, cleaved
